Data taken from paper doi:10.1101/2022.11.08.515461 (bioRxiv, 2022).

Target: yeast dynein_(MOTOR)^MT-B (microtubule-bound mutant of the motor domain) (budding yeast | T. thermophilus) (UniProt P34945)
Test: mass photometry

Chain of yeast dynein_(MOTOR)^MT-B (microtubule-bound mutant of the motor domain) (budding yeast | T. thermophilus) (P34945 whole entry, change not shown, the tested form may be a part): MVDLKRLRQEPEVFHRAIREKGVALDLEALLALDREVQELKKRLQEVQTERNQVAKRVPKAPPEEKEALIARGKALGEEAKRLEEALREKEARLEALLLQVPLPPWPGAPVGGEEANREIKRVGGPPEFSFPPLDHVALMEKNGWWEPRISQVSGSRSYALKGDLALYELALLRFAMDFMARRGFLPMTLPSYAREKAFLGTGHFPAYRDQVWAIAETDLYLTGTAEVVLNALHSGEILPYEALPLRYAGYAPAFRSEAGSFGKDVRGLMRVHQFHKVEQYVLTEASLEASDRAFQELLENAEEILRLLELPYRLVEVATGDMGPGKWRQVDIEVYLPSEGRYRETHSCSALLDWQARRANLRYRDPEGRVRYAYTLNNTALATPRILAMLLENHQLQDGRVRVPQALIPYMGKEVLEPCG

B1: Pac1-SNAP (natural protein)
chain: MTNWQQQLPLTDTQKNELDKSVLRYLNWNYKQTVRHEHAQDYESVRHAIVTLSGFLLQESVDRQEFISNNDTSNESMVDIDELLLPKKWNSIVRLQKKIIELEQNTETLVSQIKDLNTQVSELAQFKPTTSNGTSAHNVLKWIPRNLPSCLINVESSVTSVKLHPNLPIVFVATDHGKLYAFDLFNYTIPLASLQSHTKAITSMDVLFTNYTNSSKKNYLVIVTASKDLQIHVFKWVSEECKFQQIRSLLGHEHIVSAVKIWQKNNDVHIASCSRDQTVKIWDFHNGWSLKTFQPHSQWVRSIDVLGDYIISGSHDTTLRLTHWPSGNGLSVGTGHEFPIEKVKFIHFIEDSPEIRFRTPSTDRYKNWGMQYCVSASRDRTIKIWEIPLPTLMAHRAPIPNPTDSNFRCVLTLKGHLSWVRDISIRGQYLFSCADDKSVRCWDLNTGQCLHVWEKLHTGFVNCLDLDVDFDSNVTPRQMMVTGGLDCKSNVFMR
modifications: JF646-SNAP-tag ligand on the SNAP tag (fluorescent labelling)
B1 showed a stoichiometry N (Pac1 dimer per dynein (MOTOR) monomer) of 1.
